In patent US20140086913A1 (Gilead, published 2014):

Tests used:
[1] = target: DDR1 stably over-expressed in HCT-116 tumor cells (UniProt Q08345); assay: cell-based or functional assay
[2] = target: DDR1 with a ProLink Tag (PK) in engineered U20S cells (DiscoveRx) (UniProt Q08345); assay: cell-based or functional assay
[3] = target: T1, mouse DDR1 stably expressed on HEK293 cells (mouse, UniProt Q03146 20-911); assay: flow cytometry on transfected HEK293 cells
T1 construct: whole, on cells; also called murine DDR1
T1 sequence (looked up): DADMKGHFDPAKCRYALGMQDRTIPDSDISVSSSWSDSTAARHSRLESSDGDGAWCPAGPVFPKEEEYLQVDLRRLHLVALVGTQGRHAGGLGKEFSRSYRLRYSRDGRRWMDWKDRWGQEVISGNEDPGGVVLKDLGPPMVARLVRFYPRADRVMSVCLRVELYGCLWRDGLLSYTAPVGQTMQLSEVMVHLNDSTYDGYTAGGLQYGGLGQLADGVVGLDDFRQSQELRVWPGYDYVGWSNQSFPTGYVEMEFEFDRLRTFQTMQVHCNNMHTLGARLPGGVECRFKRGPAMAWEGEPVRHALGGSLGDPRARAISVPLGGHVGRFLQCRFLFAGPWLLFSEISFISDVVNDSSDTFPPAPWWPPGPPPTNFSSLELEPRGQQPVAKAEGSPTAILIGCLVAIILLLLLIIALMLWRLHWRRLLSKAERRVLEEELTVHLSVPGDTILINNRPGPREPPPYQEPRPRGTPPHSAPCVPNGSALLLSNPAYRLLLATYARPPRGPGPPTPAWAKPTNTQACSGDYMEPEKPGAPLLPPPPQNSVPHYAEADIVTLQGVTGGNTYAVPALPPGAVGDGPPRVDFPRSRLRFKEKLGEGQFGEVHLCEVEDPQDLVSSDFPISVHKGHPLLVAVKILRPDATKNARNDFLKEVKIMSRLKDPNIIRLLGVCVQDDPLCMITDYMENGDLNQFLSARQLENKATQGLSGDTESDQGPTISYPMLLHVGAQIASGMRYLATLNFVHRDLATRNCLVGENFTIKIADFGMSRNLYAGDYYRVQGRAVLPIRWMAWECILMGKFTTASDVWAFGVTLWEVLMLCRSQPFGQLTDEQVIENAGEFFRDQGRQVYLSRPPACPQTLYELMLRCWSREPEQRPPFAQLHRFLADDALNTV

[4] = target: DDR1 endogenously expressed on human cancer cell lines (T47D, HCT-116, A431) (human) (UniProt Q08345); assay: cell-based or functional assay
mouse ECD-DDR1-Fc = target: T2, mouse ECD-DDR1-Fc (mouse; human, UniProt Q03146 22-414); assay: ELISA, coated antigen
T2 construct: also called mouse DDR1-ECD; wild-type mouse DDR1-ECD; not shown: human IgG1 Fc of the vector pFuse-hIgG1-Fc1 (Invivogen)
T2 sequence: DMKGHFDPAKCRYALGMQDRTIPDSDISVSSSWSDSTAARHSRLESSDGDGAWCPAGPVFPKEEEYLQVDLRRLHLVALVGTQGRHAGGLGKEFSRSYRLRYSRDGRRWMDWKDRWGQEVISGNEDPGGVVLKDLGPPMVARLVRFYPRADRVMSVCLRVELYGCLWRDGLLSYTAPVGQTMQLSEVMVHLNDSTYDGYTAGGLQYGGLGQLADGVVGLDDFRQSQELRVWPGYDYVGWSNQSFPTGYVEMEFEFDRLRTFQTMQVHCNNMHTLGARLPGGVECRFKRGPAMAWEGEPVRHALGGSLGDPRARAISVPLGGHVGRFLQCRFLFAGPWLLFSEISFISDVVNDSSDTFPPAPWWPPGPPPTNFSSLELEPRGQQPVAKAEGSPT
Method in brief: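 Plates coated overnight at 4° C with 2 μg/mL purified tagged DDR1 ECD protein, BSA-blocked; serially diluted murine anti-DDR1 mAbs bound 1 hr at room temperature, detected with anti-mouse IgG-HRP and TMB (OD 450). Apparent KD taken as C-parameter of 4-parameter logistic fit of OD versus antibody concentration.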

DDR1 stably over-expressed in HCT-116 tumor cells, sequence (Q08345 19-913): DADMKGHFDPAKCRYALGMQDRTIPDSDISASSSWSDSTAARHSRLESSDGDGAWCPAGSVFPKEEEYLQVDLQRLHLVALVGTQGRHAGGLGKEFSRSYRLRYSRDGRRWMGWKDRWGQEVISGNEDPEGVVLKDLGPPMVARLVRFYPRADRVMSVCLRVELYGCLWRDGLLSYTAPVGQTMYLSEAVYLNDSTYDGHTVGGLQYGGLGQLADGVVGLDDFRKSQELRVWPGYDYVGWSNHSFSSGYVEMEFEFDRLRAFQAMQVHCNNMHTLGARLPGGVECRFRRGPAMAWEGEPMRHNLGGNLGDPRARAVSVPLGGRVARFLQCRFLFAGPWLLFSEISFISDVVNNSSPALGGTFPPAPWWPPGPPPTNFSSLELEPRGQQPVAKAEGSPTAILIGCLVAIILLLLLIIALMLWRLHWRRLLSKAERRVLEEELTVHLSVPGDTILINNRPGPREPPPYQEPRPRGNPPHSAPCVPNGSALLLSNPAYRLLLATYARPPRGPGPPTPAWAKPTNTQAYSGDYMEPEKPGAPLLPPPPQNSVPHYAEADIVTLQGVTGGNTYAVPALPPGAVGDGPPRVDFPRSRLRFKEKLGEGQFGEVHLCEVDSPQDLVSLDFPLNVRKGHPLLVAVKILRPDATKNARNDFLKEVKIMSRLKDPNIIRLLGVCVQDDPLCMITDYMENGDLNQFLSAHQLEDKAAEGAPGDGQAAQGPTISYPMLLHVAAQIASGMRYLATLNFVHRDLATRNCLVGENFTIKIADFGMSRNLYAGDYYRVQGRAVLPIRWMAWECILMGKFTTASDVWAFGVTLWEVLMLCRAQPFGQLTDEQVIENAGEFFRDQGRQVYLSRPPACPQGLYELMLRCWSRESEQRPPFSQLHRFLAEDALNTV

B1: AB2078 (antibody, V domains shown)
VH: EIQLQQSGPELVNPGASVKVSCKASGYSFTDYNMYWVKQSHGKSLEWIGYIDPYNGGTSYNQKFKGKATLTVDKSSSTAFMHLNSLTSEDSAVYYCAREYYGSRLWYFDVWGAGTAVTVSS
VL: DIVMTQSPSSLAMSVGQKVTMSCKSSQSLLNRNNQKNYLAWYQQKPGQSPKLLVYFASTRESGVPDRFIGSGSGTDFTLTLSSVRAEDLAENFCQQHYSTPFTFGSGTRLEIKR
notes: mouse hybridoma mAb
For B1, the EC50, NFkB luciferase reporter (HCT-116, collagen II) [1] was 3.01 nM, the EC90, NFkB luciferase reporter (HCT-116, collagen II) [1] was 6.66 nM and the Mean EC50, DDR1 Tyr513 phosphorylation assay (U20S) [2] was 1.33 nM.

B2: AB2041 (antibody, V domains shown)
VH: QVQLHQSGSELAKPGASVKMSCKASGYIFTTYWIHWLKQRPGQGLEWIGFINPDTDYTEYNQKFKDKATLTADKSSNTAYVQLSSLTSEDSAVYYCARGNYGYDGLVYWGLGTLVTVSA
VL: SIVMTQTPKFLLVSAGDRVTITCKASQSVSTDVAWYQQKPGQSPKLLIYYASNRYTGVPDRFTGSGYGTDFTFTISTVQAEDLAVYFCQQDYNSYTFGGGTKLEIKR
notes: mouse hybridoma mAb
For B2, the binding result [3] was “binds”, the EC50, DDR1 phospho-specific ELISA (T47D) [4] was 0.72 nM and the EC50, cluster formation assay (A431 cells) [4] was 2.03 nM. For the same binder, the Maximal inhibition, DDR1 phospho-specific ELISA (T47D) [4] was 100% and the binding result (mouse ECD-DDR1-Fc) was “no binding”.

B3: AB2092 (antibody, V domains shown)
VH: QIQLVQSGPELKKSGETVKISCKASGYTFTDYGMNWVKQAPGKGLKWMGWINTYTGKSTYADDFKGRFAFSLETSASTTYLQITNLKNEDMATYFCARWADYFGSSYLFASWGQGTLVTVSA
VL: DVLMTQTPLSLPVSLGDQASISCRSSQSIVHSDGNTYLEWYLQKPGQSPKLLIYKVSNRFSGVPDRFSGSGSGTDFTLKISRVEAEDLGIYYCFQGSHVPWTFGGGTKLEIKR
notes: mouse hybridoma mAb
Work on B3 yielded an EC50, DDR1 phospho-specific ELISA (T47D) [4] of 0.52 nM, an EC50, cluster formation assay (A431 cells) [4] of 4.18 nM and a Maximal inhibition, DDR1 phospho-specific ELISA (T47D) [4] of 100%.
